Experimental data taken from patent US20100291106A1 (Novartis, published 2010).
Substitutions are numbered along the chain they refer to. Where two headings read alike, the source gives them in different places.

B1: MOR09398 Fab (Fab, V domains shown)
VH: QVQLVESGGGLVQPGGSLRLSCAASGFTFSSYWMTWVRQAPGKGLEWVSSIKIKPDGYAASVKGRFTISRDNSKNTLYLQMNSLRAEDTAVYYCARLFYQYFARMDYWGQGTLVTVSS
VL: DIQMTQSPSSLSASVGDRVTITCRASQDISNYLNWYQQKPGKAPKLLIYAASNLQSGVPSRFSGSGSGTDFTLTISSLQPEDFATYYCQQWDSFSPTFGQGTKVEIKR
notes: also called Fab 9398
B2: MOR09397 Fab (Fab, V domains shown)
VH: B1 VH
VL: B1 VL with W91H, S93T, S95R
notes: also called Fab 9397
B3: MOR09556 IgG (antibody, V domains shown)
VH: B1 VH with Q1E
VL: B1 VL with W91Y, F94Y
notes: Germlined human IgG1 with leucines 234 and 235 changed to alanines, kappa; also called antibody 9556
B4: MOR09675 IgG (antibody, V domains shown)
VH: EVQLVQSGAEVKKPGASVKVSCKASGYTFTGYYINWVRQAPGQGLEWMGIISPNQGTTGYAQKFQGRVTMTRDTSISTAYMELSSLRSEDTAVYYCARGNYDHLDYWGQGTLVTVSS
VL: DIQMTQSPSSLSASVGDRVTITCRASQGISNYLNWYQQKPGKAPKLLIYDASTLQSGVPSRFSGSGSGTDFTLTISSLQPEDFATYYCQQDWHTLPVTFGQGTKVEIKR
notes: Germlined human IgG1 with leucines 234 and 235 changed to alanines, kappa; also called antibody 9675

Assays:
[1] = target: T1, human C3d (human, UniProt P01024 1002-1303); test: cross reactivity, ELISA on C3d, anti-His detection
T1 construct: domain: C3d
Experimental: In order to determine whether the anti-C3b antibodies described herein can bind to complement pathway components iC3b and C3c, the following steps were performed: Directly add iC3b(complement Technologies A115), C3d (complement Technologies A117), or C3c (complement Technologies A116), at 2 μg/ml in Carbonate Buffer onto Coat Maxisorp plate Nunc (442404) at 100 μl per well. Seal plates and incubate at 4° C. overnight. Aspirate plates and wash 3 times with PBS/0.5% Tween 20. Block plates with Diluent (PBS, 4% BSA Fraction V (Fisher ICN16006980), 0.1% Tween 20 (Sigma P1379), 0.1% Triton X-100 (Sigma P234729)) and incubate for 2 h at room temperature or overnight at 4° C. Then wash plates once with PBS/0.5% Tween 20. Dilute Fabs at 100 nM and subsequent dilutions (or higher concentration if needed) in diluent and plate 100 μl per well. Incubate at room temperature for 1 h. Wash plates 3 times with PBS/0.5% Tween 20. Add 100 μl/well of anti-Histidine-HRP monoclonal detection antibody at 1:400 in diluent and incubate at room temperature for 1 h. Then wash 4 times with PBS/0.5% Tween 20. Add 100 μl of TMB substrate (Pierce 34028) and incubate at room temperature for up to 5 min. Add 50 μl of Stop solution (2N Sulfuric Acid) to each well and read plate at 450 nm and correct for plastic reading at 570 nm.

[2] = target: T2, human complement C3b protein (human, UniProt P01024 23-667; P01024 749-1663); test: bead proximity assay, C3b-acceptor beads; competitor fP-donor beads
T2 construct: Purified plasma C3b (Complement Technology, Quidel); Depending on the assay it was captured by an anti-C3d antibody, coated, biotinylated or coupled to beads; also called human C3b; huC3b
Experimental: (§1) For C3b-C3b and C3b-fP proximity, Fabs or IgGs respectively were pre-incubated with C3b-Acceptor beads (20 μg/ml) for 60 min at room temperature. C3b-Donor beads or fP-Donor beads (20 μg/ml) were then added, and the plate was incubated overnight at room temperature before reading. For C3b-fB and C3b-fH proximity, antibodies were pre-incubated with C3b-Acceptor beads (20 μg/ml) for 60 minutes at room temperature. Biotinylated fB(D24G/N260D) or fH were then added, and incubated for 60 minutes at room temperature. SA-Donor beads were then added (20 μg/ml) and the plate was incubated overnight at room temperature before reading. Plates were read on the BMG Pherastar (ex=680, em=520-620).

[3] = target: T2, human complement C3b protein; test: bead proximity assay, C3b-acceptor beads; competitor biotinylated fB(D24G/N260D)
Experimental: as §1

[4] = target: T3, human C5 (human, UniProt P01031 19-673; P01031 678-1676); test: cross reactivity, capture ELISA with anti-C5 capture antibody, anti-His detection
T3 construct: Captured by an anti-C5 antibody in the ELISA

[5] = target: T2, human complement C3b protein; test: cell-based or functional assay
[6] = target: T4, cynomolgus complement C3b protein (cynomolgus monkey (Macaca fascicularis)); test: cell-based or functional assay
[7] = target: T2, human complement C3b protein; test: SPR (Biacore), C3b captured by anti-C3d antibody, Fab as analyte
[8] = target: T4, cynomolgus complement C3b protein; test: as above
[9] = target: T2, human complement C3b protein; test: solution equilibrium titration (SET), ECL detection, Fab
[10] = target: T4, cynomolgus complement C3b protein; test: as above
[11] = target: T2, human complement C3b protein; test: bead proximity assay, C3b-acceptor beads; competitor biotinylated fH
Experimental: as §1

[12] = target: T2, human complement C3b protein; test: AlphaScreen bead proximity, C3b-Acceptor beads pre-incubated with antibody, then C3b-Donor beads; inhibition of C3b-C3b dimer formation; unit from the axis [Antibody] nM [D]
Experimental: (§2) In brief, purified C3b and fP were conjugated to unconjugated acceptor or donor beads (PerkinElmer) using AminoLink Reductant (Pierce) during a 48 h incubation at room temperature. Beads were quenched using Carboxymethoxylamine Hemihydrochloride (Aldrich), and purified by centrifugation at 13000 rpm and three washes with 0.1M TBST. Purified fB(D24G/N260D) and fH were biotinylated during a 30 min incubation with 20-fold molar excess of NHS-Chromogenic-biotin (Pierce) at room temperature, and purified using Zeba 0.5 ml desalting columns (Pierce).
as §1

[13] = target: T2, human complement C3b protein
[14] = target: T2, human complement C3b protein; test: SPR (Biacore T100), C3b captured by anti-C3d antibody, IgG as analyte, 1:1 model
[15] = target: T4, cynomolgus complement C3b protein; test: as above
[16] = target: T2, human complement C3b protein; test: AlphaScreen bead proximity, C3b-Acceptor beads pre-incubated with antibody, then biotinylated fB(D24G/N260D) and SA-Donor beads; blocked ligand: fB [A]
Experimental: as §2, §1

[17] = target: T1, human C3d; test: C3d binding ELISA, IgG titrated from about 0.006 to 100 nM
[18] = target: T2, human complement C3b protein; test: AlphaScreen bead proximity, C3b-Acceptor beads pre-incubated with antibody, then biotinylated fH and SA-Donor beads; blocked ligand: fH [C]
[19] = target: T2, human complement C3b protein; test: cell-based or functional assay; remark: listed apart in the source
[20] = target: T2, human complement C3b protein; test: ELISA, C3b captured on coated anti-C3d antibody, antibody titrated (axis: IgG concentration)
Experimental: The C3b antibodies were examined to determine whether they were selective for binding to C3b relative to the C3b precursor C3. Briefly, binding selectivity for C3b was determined by performing the following steps. Coat Maxisorp plate Nunc (442404) with anti-C3d rabbit monoclonal (abcam 17453) at 2 μg/ml in Carbonate Buffer at 100 μl/well. Seal plates and incubate at 4° C. overnight. Aspirate plates and wash 3 times with PBS/0.5% Tween 20. Block plates with Diluent (PBS, 4% BSA Fraction V (Fisher ICN16006980), 0.1% Tween 20 (Sigma P1379), 0.1% Triton X-100 (Sigma P234729)) and incubate for 2 h at room temperature or overnight at 4° C. Then wash plates once with PBS/0.5% Tween 20. Dilute purified C3b (complement technologies A114 lot 21) and C3 (complement technologies A113c) at 1 μg/ml in diluent and plate 100 μl per well. Incubate for 1 h at room temperature. Then wash 3 times with PBS/0.5% Tween 20.
Dilute Fabs at 100 nM and subsequent dilutions (or higher concentration) in diluent and plate 100 μl per well. Incubate at room temperature for 1 h. Wash plates 3 times with PBS/0.5% Tween 20. Add 100 μl/well of anti-Histidine-HRP monoclonal detection antibody at 1:400 in diluent and incubate at room temperature for 1 h. Then wash 4 times with PBS/0.5% Tween 20. […] Add 50 μl of Stop solution (2N Sulfuric Acid) to each well and read plate at 450 nm and correct for plastic reading at 570 nm.

[21] = target: T2, human complement C3b protein; test: ELISA, C3b or C3 captured by anti-C3d antibody
[22] = target: T2, human complement C3b protein; test: AlphaScreen bead proximity, C3b-Acceptor beads pre-incubated with antibody, then C3b-Donor beads; inhibition of C3b-C3b dimer formation; unit from the axis [Antibody] nM; value lies above the highest point shown (about 800 nM) [D]
Experimental: as §2, §1

T2 sequence (P01024 23-667 P314L, chain 1 of 2): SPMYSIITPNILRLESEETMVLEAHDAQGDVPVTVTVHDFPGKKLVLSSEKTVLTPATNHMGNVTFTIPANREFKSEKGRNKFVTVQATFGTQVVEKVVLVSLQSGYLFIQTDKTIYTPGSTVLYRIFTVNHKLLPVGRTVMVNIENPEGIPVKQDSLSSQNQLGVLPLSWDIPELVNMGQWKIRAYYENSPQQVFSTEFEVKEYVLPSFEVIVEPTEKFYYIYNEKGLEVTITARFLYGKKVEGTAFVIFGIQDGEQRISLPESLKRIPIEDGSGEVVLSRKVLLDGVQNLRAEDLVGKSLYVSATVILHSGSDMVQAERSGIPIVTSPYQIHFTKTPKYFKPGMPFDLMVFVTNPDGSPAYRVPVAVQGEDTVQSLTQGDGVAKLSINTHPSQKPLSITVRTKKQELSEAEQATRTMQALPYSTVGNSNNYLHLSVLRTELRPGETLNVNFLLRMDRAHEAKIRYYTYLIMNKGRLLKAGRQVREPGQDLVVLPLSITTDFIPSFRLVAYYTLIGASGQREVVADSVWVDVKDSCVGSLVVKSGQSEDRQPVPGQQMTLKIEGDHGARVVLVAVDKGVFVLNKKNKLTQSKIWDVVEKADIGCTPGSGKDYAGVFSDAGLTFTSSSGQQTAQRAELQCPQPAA
T2 sequence (P01024 749-1663, chain 2 of 2): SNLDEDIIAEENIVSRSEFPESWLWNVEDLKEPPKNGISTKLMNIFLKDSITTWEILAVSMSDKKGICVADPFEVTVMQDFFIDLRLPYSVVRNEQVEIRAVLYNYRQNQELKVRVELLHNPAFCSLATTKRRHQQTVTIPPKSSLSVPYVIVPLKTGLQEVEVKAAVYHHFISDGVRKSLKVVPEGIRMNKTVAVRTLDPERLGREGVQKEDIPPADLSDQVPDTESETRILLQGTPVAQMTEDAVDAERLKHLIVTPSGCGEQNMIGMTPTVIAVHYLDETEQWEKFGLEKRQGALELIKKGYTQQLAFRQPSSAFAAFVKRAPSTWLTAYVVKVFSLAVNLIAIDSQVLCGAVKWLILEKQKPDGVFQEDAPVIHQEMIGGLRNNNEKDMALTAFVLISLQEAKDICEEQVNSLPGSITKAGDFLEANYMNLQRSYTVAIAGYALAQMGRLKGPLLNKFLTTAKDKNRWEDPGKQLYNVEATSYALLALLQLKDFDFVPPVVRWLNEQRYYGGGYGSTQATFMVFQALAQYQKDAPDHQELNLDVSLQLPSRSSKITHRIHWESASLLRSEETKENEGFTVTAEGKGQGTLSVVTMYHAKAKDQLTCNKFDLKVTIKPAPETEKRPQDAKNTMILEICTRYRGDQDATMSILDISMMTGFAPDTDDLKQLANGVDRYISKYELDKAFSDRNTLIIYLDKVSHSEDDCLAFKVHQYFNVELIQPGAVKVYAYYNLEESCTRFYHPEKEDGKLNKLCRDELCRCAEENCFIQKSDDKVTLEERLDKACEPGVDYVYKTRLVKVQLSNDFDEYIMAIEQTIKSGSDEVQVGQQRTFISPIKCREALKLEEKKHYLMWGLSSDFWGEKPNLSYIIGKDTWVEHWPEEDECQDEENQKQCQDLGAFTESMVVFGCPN
T1 sequence (P01024 1002-1303 limits assumed): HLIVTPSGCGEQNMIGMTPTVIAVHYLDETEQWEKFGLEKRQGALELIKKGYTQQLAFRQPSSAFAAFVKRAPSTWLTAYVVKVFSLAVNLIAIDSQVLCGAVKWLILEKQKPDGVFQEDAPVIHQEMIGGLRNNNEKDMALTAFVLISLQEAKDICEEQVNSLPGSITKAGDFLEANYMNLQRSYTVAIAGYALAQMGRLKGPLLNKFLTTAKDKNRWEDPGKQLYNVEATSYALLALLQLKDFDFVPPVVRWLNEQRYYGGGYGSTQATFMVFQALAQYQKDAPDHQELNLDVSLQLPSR
T3 sequence (P01031 19-673 limits assumed, chain 1 of 2): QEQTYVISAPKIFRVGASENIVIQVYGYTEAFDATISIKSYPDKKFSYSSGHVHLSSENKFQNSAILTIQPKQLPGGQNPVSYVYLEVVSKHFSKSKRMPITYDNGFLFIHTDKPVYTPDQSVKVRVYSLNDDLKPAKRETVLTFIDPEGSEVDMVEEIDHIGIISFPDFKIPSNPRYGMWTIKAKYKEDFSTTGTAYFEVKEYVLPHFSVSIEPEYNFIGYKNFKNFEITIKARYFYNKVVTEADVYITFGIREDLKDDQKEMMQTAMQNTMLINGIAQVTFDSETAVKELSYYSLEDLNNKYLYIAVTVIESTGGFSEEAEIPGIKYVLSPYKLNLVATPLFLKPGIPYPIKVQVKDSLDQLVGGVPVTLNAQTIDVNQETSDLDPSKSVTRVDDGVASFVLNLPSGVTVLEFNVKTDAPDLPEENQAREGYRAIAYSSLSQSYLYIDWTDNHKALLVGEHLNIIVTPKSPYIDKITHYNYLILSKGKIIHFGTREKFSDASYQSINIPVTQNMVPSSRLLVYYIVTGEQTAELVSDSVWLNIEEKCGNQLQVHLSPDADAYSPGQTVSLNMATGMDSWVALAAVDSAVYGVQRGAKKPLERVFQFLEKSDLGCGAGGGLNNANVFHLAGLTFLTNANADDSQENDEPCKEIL
T3 sequence (P01031 678-1676 limits assumed, chain 2 of 2): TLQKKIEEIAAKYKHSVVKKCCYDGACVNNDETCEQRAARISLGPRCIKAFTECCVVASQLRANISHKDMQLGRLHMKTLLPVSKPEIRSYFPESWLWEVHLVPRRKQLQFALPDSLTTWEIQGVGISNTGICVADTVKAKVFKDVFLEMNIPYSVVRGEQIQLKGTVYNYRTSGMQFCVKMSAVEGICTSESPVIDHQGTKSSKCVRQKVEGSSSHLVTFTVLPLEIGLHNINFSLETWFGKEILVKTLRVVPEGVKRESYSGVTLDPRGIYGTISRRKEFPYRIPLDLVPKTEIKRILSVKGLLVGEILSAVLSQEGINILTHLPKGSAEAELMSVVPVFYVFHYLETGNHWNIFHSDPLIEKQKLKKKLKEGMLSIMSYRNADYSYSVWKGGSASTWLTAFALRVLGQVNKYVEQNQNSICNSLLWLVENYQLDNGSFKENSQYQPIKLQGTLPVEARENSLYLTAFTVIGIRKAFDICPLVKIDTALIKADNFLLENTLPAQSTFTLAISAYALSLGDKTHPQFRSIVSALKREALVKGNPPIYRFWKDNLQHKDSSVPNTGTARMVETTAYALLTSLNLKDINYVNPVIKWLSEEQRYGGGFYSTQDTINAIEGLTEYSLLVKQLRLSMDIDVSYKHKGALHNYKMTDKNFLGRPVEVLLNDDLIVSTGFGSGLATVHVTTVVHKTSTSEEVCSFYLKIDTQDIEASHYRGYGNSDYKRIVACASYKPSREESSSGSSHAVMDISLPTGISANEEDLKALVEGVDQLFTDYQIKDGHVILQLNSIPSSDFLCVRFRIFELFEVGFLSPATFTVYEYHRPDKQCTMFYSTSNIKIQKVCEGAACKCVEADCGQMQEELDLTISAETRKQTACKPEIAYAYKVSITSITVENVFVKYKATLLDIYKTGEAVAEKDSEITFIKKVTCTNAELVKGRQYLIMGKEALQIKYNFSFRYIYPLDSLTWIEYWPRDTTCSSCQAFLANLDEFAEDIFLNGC

| Binder | binding result [1] | IC50 [2] [nM] | IC50 [3] [nM] | binding result [4] | C3b Dep (nM), human serum, IC50 [5] [nM] | HA (nM), 10% human serum, IC50 [5] [nM] | MAC Dep (nM), human serum, IC50 [5] [nM] | C3b Dep (nM), cyno serum, IC50 [6] [nM] | HA (nM), 10% cyno serum, IC50 [6] [nM] | MAC Dep (nM), cyno serum, IC50 [6] [nM] | Kd [7] [nM] | Kd [8] [nM] | Kd [9] [nM] | Kd [10] [nM] | IC50 [11] [nM] | Kd [14] [nM] | koff [14] [s⁻¹] | kon [14] [M⁻¹ s⁻¹] | Kd [15] [nM] | koff [15] [s⁻¹] | other results |
| --- | --- | --- | --- | --- | --- | --- | --- | --- | --- | --- | --- | --- | --- | --- | --- | --- | --- | --- | --- | --- | --- |
| B1 | no binding | 300 | 0.1 | no binding | 13 | 45 | 1 | 56 | 86 | 5 | 0.003 | 0.092 | 0.004 | 0.1 | 0.1 | – | – | – | – | – | – |
| B2 | no binding | 300 | 0.1 | no binding | 13 | 35 | 1 | 35 | 59 | 7 | 0.007 | 0.089 | 0.002 | 0.12 | 0.1 | – | – | – | – | – | – |
| B3 | – | – | – | – | – | – | – | – | – | – | – | – | – | – | – | 0.0001 | 3.21e-07 | 3.21e+06 | 0.0102 | 4.67e-05 | EC50 [12]: 300 nM; fold binding selectivity for C3b over C3 [13]: 1000 fold; kon [15]: 4.57e+06 M⁻¹ s⁻¹; IC50 (read off the curve) [16]: ~0.05 nM; binding result [17]: no binding (tested: 100 nM); IC50 (read off the curve) [18]: ~0.04 nM; MAC deposition on zymosan, IC50 [19]: ≤ 5 nM; hemolysis of rabbit red blood cells, 10% human or cynomolgus serum, IC50 [19]: ≤ 50 nM; inhibition of C3a and C5a generation during hemolysis, IC50 [19]: ≤ 50 nM; EC50 (read off the curve) [20]: ~0.08 nM |
| B4 | – | – | – | – | – | – | – | – | – | – | – | – | – | – | – | 0.00288 | 1.02e-06 | 353000 | 0.202 | 0.00029 | kon [15]: 1.45e+06 M⁻¹ s⁻¹; IC50 (read off the curve) [16]: ~0.05 nM; binding result [17]: no binding (tested: 100 nM); IC50 (read off the curve) [18]: ~0.02 nM; fold binding selectivity for C3b over C3 [21]: > 1000 fold; EC50 [22]: 2360 nM; MAC deposition on zymosan, IC50 [19]: ≤ 5 nM; hemolysis of rabbit red blood cells, 10% human or cynomolgus serum, IC50 [19]: ≤ 50 nM; inhibition of C3a and C5a generation during hemolysis, IC50 [19]: ≤ 50 nM |
